Measurements published in paper doi:10.1101/2024.07.12.603331 (bioRxiv, 2024).

Target: neonatal Fc receptor (FcRn), recombinant ectodomains (UniProt P55899;P61769)
Test: BLI

neonatal Fc receptor (FcRn), recombinant ectodomains, sequence (P55899 24-297, chain 1 of 2): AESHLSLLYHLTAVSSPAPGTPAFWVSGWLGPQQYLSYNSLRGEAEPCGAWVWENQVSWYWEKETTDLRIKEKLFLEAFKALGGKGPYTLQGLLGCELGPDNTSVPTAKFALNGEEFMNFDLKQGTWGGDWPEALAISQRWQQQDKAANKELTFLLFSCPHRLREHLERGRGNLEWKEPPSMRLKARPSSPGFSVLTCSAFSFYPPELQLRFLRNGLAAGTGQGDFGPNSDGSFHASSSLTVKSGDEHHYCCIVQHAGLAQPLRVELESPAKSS
neonatal Fc receptor (FcRn), recombinant ectodomains, sequence (P61769 21-119, chain 2 of 2): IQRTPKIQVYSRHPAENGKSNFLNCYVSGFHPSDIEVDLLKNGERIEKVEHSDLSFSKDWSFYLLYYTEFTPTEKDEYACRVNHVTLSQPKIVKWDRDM

B1: HAstV1 spike protein VP25 (residues S424 to R648) (domain or fragment)
chain: SIPAPGEEFKVVLTFGAPMSPNANNKQTWVNKPLDAPSGHYNVKIAKDVDHYLTMQGFTSIASVDWYTIDFQPSEAPAPIQGLQVLVNSSKKADVYAIKQFVTAQTNNKHQVTSLFLVKVTTGFQVNNYLSYFYRASATGDATTNLLVRGDTYTAGISFTQGGWYLLTNTSIVDGAMPPGWVWNNVELKTNTAYHMDKGLVHLIMPLPESTQMCYEMLTSIPRSR
modifications: biotin (EZ-link NHS-PEG4-Biotin)
- Kd: 578 nM
